Laboratory results taken from patent US20240116985A1 (published 2024).
Starred links: 1 amine or outer side, 2 acyl side, 3 side chain; linkers in the order of their positions; H or OH if unused. Positions of bridges follow the written chain, without caps; N, C: chain ends. Non-standard residues stand in square brackets, D forms with d. Primed or numbered codes have the meaning given here. PyrS2(3) = (S)-3-amino-1-((pent-4-en-1-yloxy)carbonyl)pyrrolidine-3-carboxylic acid, stapling residue, C=CCCCOC(=O)N1CC[C@@](N[*:1])(C(=O)[*:2])C1; PyrS2″ = (S)-3-amino-1-((pent-4-en-1-yloxy)carbonyl)pyrrolidine-3-carboxylic acid (stapling residue), C=CCCCOC(=O)N1CC[C@@](N[*:1])(C(=O)[*:2])C1; RdN″ = (R)-4-(((allyloxy)carbonyl)(methyl)amino)-2-amino-2-methylbutanoic acid (stapling residue), C=CCOC(=O)N(C)CC[C@@](C)(N[*:1])C(=O)[*:2]; TfeGA = (S)-2-amino-3-((carboxymethyl)(2,2,2-trifluoroethyl)amino)propanoic acid, O=C([C@H](CN(CC(=O)[*:3])CC(F)(F)F)N[*:1])[*:2]; B5(3) = 2,2-bis(4-pentenyl)glycine (stitching residue), C=CCCCC(CCCC=C)(N[*:1])C(=O)[*:2]; B5″ = 2,2-bis(4-pentenyl)glycine, stitching residue, C=CCCCC(CCCC=C)(N[*:1])C(=O)[*:2]; S7 = C[C@@](CCCCCC=[*:3])(N[*:1])C(=O)[*:2]; Phe(2-Cl) = N[C@@H](Cc1ccccc1Cl)C(=O)O; Bta = N[C@@H](Cc1csc2ccccc12)C(=O)O; αAllylPro = C=CC[C@@]1(C(=O)O)CCCN1; tBuAla = CC(C)(C)C[C@H](N)C(=O)O; 3Thi = N[C@@H](Cc1ccsc1)C(=O)O; Thr(ol) = C[C@@H](O)[C@H](N)CO

What was measured:
beta-catenin [1] = molecular target: T1, beta-catenin (Homo sapiens (Human), UniProt P35222 1-781); assay: cell-based or functional assay
T1 sequence: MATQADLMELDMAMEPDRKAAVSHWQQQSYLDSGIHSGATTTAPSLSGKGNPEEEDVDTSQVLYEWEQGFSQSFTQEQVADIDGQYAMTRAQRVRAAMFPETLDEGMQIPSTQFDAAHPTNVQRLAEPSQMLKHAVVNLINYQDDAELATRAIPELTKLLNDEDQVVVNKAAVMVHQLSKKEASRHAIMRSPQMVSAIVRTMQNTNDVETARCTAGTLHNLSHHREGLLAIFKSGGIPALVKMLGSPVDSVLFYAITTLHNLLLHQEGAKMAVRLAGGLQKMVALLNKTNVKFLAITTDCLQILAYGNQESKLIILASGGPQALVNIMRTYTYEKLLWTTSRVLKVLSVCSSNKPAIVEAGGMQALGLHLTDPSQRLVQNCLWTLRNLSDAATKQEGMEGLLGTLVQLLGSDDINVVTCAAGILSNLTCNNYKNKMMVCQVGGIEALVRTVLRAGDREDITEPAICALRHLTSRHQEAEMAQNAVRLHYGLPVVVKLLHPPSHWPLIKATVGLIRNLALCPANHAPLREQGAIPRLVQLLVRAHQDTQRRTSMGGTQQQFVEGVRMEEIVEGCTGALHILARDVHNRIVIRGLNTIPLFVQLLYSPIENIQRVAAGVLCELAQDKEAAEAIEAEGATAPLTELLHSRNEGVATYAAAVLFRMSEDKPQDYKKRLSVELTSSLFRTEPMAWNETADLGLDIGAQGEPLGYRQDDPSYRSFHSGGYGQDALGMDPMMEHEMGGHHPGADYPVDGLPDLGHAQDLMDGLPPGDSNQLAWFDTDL

beta-catenin [2] = molecular target: T2, beta-catenin (Homo sapiens (Human), UniProt P35222 2-781); assay: cell-based or functional assay
T2 sequence: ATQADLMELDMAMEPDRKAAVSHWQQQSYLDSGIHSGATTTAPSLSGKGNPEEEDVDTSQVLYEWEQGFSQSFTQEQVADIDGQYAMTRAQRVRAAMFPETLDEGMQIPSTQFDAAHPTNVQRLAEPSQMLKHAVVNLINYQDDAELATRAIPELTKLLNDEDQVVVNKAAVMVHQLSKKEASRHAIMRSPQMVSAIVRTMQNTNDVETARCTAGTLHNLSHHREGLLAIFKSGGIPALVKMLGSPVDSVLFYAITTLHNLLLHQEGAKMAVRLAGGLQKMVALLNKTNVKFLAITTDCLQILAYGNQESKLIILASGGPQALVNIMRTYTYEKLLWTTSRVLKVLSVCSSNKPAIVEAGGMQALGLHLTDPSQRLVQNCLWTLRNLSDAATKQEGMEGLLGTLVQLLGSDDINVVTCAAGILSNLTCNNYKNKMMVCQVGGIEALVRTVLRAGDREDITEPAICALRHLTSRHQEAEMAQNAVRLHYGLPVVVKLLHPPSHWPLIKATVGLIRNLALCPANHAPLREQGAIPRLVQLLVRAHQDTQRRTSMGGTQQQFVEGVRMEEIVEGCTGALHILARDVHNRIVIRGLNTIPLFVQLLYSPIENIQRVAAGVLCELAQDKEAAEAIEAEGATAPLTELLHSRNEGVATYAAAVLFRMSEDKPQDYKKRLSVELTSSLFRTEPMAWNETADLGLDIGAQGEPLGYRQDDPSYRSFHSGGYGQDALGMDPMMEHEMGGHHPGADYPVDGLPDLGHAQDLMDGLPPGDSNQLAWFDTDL

[3] = molecular target: T3, full-length beta-Catenin (Uniprot ID P35222) (Homo sapiens (Human), UniProt P35222 2-781); assay: AlphaScreen competition vs biotin-TCF4(10-53) on full-length beta-catenin
T3 construct: The assay text says 'full-length'; also called B-Catenin; bCat
T3 sequence: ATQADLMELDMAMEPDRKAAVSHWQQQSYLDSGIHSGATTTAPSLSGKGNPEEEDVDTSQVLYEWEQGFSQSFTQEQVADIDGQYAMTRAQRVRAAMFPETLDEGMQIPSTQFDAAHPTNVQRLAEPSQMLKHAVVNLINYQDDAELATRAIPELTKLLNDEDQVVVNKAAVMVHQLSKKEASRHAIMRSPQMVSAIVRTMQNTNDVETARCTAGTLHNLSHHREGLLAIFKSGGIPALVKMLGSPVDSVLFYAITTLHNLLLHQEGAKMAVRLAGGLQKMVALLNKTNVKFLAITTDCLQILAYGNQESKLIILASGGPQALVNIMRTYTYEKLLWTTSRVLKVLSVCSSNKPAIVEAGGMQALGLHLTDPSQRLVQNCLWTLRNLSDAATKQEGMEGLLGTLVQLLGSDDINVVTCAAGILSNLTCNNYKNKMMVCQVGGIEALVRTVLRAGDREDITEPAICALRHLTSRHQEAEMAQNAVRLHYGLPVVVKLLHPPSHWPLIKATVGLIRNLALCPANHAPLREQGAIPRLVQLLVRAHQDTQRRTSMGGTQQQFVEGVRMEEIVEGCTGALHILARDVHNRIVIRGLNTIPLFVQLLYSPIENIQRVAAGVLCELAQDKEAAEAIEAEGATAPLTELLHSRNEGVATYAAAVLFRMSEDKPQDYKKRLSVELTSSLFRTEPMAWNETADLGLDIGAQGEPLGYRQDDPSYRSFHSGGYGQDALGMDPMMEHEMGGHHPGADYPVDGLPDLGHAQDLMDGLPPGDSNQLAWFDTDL
Description: Equal volume of the titrated peptide was added to the plate and incubated for 15 minutes at 20° C. Then 4 uL of donor and 4 uL acceptor beads at 10 ug/mL were added to the plate, for a 16 uL reaction pool and protected from light for 60 minutes at 20° C. prior to read. Reads were performed on a CLARIOstar plate reader (BMG Labtech) in duplicate, and data were fitted to a 1:1 binding model with hill slope using an in-house script. All provided concentrations are final concentrations.

Row | Binder | DLD1 TCF c2 BrightGlo % Inhibition, 0.625 uM, replicate 1 (beta-catenin [1]) [%] | DLD1 TCF c2 BrightGlo % Inhibition, 0.625 uM, replicate 2 (beta-catenin [1]) [%] | DLD1 TCF c2 BrightGlo % Inhibition, 0.625 uM, replicate 3 (beta-catenin [1]) [%] | DLD1 TCF c2 BrightGlo % Inhibition, 1.25 uM, replicate 1 (beta-catenin [1]) [%] | DLD1 TCF c2 BrightGlo % Inhibition, 1.25 uM, replicate 2 (beta-catenin [1]) [%] | DLD1 TCF c2 BrightGlo % Inhibition, 1.25 uM, replicate 3 (beta-catenin [1]) [%] | DLD1 TCF c2 BrightGlo % Inhibition, 2.5 uM, replicate 1 (beta-catenin [1]) [%] | DLD1 TCF c2 BrightGlo % Inhibition, 2.5 uM, replicate 2 (beta-catenin [1]) [%] | DLD1 TCF c2 BrightGlo % Inhibition, 2.5 uM, replicate 3 (beta-catenin [1]) [%] | DLD1 TCF c2 BrightGlo % Inhibition, 5 uM, replicate 1 (beta-catenin [1]) [%] | DLD1 TCF c2 BrightGlo % Inhibition, 5 uM, replicate 2 (beta-catenin [1]) [%] | DLD1 TCF c2 BrightGlo % Inhibition, 5 uM, replicate 3 (beta-catenin [1]) [%] | DLD1 TCF c2 BrightGlo % Inhibition, 10 uM, replicate 1 (beta-catenin [1]) [%] | DLD1 TCF c2 BrightGlo % Inhibition, 10 uM, replicate 2 (beta-catenin [1]) [%] | DLD1 TCF c2 BrightGlo % Inhibition, 10 uM, replicate 3 (beta-catenin [1]) [%] | DLD1 TCF c2 BrightGlo % Inhibition, 20 uM, replicate 1 (beta-catenin [1]) [%] | DLD1 TCF c2 BrightGlo % Inhibition, 20 uM, replicate 2 (beta-catenin [1]) [%] | DLD1 TCF c2 BrightGlo % Inhibition, 20 uM, replicate 3 (beta-catenin [1]) [%] | also measured
1 | Ac-[αAllylPro]D[tBuAla][B5(3)]D[TfeGA]AAFF[PyrS2″]F[Bta]Q-NH2 (staple 1-4, 4-11) [I-988] | 11 | 10.7 | 15.5 | 5.7 | 22.3 | 21.2 | 13.3 | 28.8 | 33.4 | 32 | 57.8 | 62 | 61.5 | 72 | 76.2 | 78.1 | 81.3 | 81.9 | 
2 | Ac-[αAllylPro]D[tBuAla][B5(3)]DDAAFN[PyrS2″][Phe(2-Cl)][Bta][Thr(ol)] (staple 1-4, 4-11) [I-1082] |  |  |  |  |  |  |  |  |  |  |  |  |  |  |  |  |  |  | DLD1 TCF c2 BrightGlo % Inhibition (TCF/LEF luciferase reporter; 0.625 uM by plate map, replicate 1) (beta-catenin [2]): 14.1%; DLD1 TCF c2 BrightGlo % Inhibition (TCF/LEF luciferase reporter; 0.625 uM by plate map, replicate 2) (beta-catenin [2]): 17.4%; DLD1 TCF c2 BrightGlo % Inhibition (TCF/LEF luciferase reporter; 0.625 uM by plate map, replicate 3) (beta-catenin [2]): 20.3%; DLD1 TCF c2 BrightGlo % Inhibition (TCF/LEF luciferase reporter; 1.25 uM by plate map, replicate 1) (beta-catenin [2]): 14%; DLD1 TCF c2 BrightGlo % Inhibition (TCF/LEF luciferase reporter; 1.25 uM by plate map, replicate 2) (beta-catenin [2]): 21.5%; DLD1 TCF c2 BrightGlo % Inhibition (TCF/LEF luciferase reporter; 1.25 uM by plate map, replicate 3) (beta-catenin [2]): 24%; DLD1 TCF c2 BrightGlo % Inhibition (TCF/LEF luciferase reporter; 2.5 uM by plate map, replicate 1) (beta-catenin [2]): 17.3%; DLD1 TCF c2 BrightGlo % Inhibition (TCF/LEF luciferase reporter; 2.5 uM by plate map, replicate 2) (beta-catenin [2]): 36.1%; DLD1 TCF c2 BrightGlo % Inhibition (TCF/LEF luciferase reporter; 2.5 uM by plate map, replicate 3) (beta-catenin [2]): 37.9%; DLD1 TCF c2 BrightGlo % Inhibition (TCF/LEF luciferase reporter; 5 uM by plate map, replicate 1) (beta-catenin [2]): 38.5%; DLD1 TCF c2 BrightGlo % Inhibition (TCF/LEF luciferase reporter; 5 uM by plate map, replicate 2) (beta-catenin [2]): 56.2%; DLD1 TCF c2 BrightGlo % Inhibition (TCF/LEF luciferase reporter; 5 uM by plate map, replicate 3) (beta-catenin [2]): 62%; DLD1 TCF c2 BrightGlo % Inhibition (TCF/LEF luciferase reporter; 10 uM by plate map, replicate 1) (beta-catenin [2]): 63.9%; DLD1 TCF c2 BrightGlo % Inhibition (TCF/LEF luciferase reporter; 10 uM by plate map, replicate 2) (beta-catenin [2]): 71%; DLD1 TCF c2 BrightGlo % Inhibition (TCF/LEF luciferase reporter; 10 uM by plate map, replicate 3) (beta-catenin [2]): 75%; DLD1 TCF c2 BrightGlo % Inhibition (TCF/LEF luciferase reporter; 20 uM by plate map, replicate 1) (beta-catenin [2]): 76.5%; DLD1 TCF c2 BrightGlo % Inhibition (TCF/LEF luciferase reporter; 20 uM by plate map, replicate 2) (beta-catenin [2]): 77.1%; DLD1 TCF c2 BrightGlo % Inhibition (TCF/LEF luciferase reporter; 20 uM by plate map, replicate 3) (beta-catenin [2]): 79.9%
3 | Ac-FDA[RdN″]DDAAFV[S7]FWQ-NH2 (staple 4-11, Stapled peptide composition) [I-1] |  |  |  |  |  |  |  |  |  |  |  |  |  |  |  |  |  |  | EC50 [3]: ≥ 10 µM
4 | Ac-[αAllylPro]D[tBuAla][B5″]D[TfeGA]AAFN[PyrS2(3)][3Thi][Bta]Q-NH2 (staple 1-4, 4-11) [I-762] | 14.5 | 18.6 | 9.3 | 12.9 | 16.9 | 5.5 | 12.9 | 17.4 | 11.9 | 28.2 | 45.2 | 44.6 | 56.8 | 70.2 | 65.6 | 75.7 | 81.9 | 78.7 | 
